The values that follow come from patent US20180038857A1.

Among the targets are hCCR3 (human) (UniProt P51677); hCCR9 (human) (UniProt P51686); hCXCR3 (human) (UniProt P49682).
Common to all, as to experiment: cell-based or functional assay
For a further test, the target named is T1, hCCR6 (human) (UniProt P51684).
T1 sequence (looked up): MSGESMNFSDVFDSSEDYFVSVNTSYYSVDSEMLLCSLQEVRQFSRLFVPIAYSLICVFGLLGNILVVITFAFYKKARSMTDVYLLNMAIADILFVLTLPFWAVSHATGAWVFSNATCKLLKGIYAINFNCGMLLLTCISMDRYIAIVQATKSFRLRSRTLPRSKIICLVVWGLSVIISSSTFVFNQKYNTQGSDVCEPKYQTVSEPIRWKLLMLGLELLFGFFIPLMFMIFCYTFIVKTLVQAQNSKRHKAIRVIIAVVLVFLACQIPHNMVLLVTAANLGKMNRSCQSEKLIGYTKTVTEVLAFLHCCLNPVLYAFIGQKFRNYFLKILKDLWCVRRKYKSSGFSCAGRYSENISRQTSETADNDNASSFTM

Chain of hCCR9 (human) (P51686 whole entry): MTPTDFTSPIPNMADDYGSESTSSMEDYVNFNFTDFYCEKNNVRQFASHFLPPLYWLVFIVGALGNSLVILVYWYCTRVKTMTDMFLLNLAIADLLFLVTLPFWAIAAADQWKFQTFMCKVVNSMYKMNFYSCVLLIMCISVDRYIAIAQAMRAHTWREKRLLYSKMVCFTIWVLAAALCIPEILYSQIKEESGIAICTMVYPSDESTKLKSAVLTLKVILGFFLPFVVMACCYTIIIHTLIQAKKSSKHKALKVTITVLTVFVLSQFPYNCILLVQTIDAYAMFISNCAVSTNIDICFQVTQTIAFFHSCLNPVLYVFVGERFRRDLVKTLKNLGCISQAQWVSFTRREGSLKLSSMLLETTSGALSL
Chain of UniProt O15444 (O15444 other isoform, or with tags, fused parts or gaps limits assumed): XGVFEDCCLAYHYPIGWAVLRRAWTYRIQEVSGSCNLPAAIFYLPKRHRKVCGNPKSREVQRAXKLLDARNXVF
Chain of hCCR3 (human) (P51677 whole entry): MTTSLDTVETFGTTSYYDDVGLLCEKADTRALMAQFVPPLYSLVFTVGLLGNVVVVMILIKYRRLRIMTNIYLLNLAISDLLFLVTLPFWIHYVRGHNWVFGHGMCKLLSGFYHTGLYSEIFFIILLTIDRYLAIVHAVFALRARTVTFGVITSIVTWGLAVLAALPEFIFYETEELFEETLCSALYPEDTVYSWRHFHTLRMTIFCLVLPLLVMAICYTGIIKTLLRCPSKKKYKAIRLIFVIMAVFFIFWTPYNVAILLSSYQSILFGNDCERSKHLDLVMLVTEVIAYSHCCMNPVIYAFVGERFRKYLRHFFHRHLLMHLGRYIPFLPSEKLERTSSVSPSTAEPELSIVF
Chain of hCXCR3 (human) (P49682 whole entry): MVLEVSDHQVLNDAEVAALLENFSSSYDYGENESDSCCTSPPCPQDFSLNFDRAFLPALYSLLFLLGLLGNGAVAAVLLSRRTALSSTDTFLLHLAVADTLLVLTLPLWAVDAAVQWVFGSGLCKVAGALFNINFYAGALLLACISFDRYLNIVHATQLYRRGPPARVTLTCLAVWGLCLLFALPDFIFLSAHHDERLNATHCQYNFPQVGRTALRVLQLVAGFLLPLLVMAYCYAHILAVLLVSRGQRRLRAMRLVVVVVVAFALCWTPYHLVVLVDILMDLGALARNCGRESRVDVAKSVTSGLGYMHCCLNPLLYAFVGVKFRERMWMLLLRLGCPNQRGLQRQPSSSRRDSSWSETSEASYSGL
Chain of recombinant native MIP-3α (P78556 27-96 limits assumed): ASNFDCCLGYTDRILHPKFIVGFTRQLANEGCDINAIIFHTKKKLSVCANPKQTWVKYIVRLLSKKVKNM

Substance “recombinant native eotaxin (from UniProt P51671 24-97) (ligand)” came in with an EC50, activity in an Aequorin assay (agonist) in the test with hCCR3 (human) of 10.7 nM.

In turn, “biotinTECK(Met to Nleu substitution) (CCL25): TECK derivatised at the ε-amino side chain functionality of Lys72 with PEG-Biotin (from UniProt O15444 25-97) (ligand)” came in with an EC50, agonist activity in an Aequorin assay in the test with hCCR9 (human) of 63.6 nM. Same read-out and setting: in the case of “recombinant native TECK (from UniProt O15444 24-150) (ligand)” it was 67.9 nM. As to “recombinant native MIP-3α (from UniProt P78556 27-96) (ligand)”, the EC50, agonist activity in an Aequorin assay in the test with hCCR6 (human) worked out at 1 nM.

“recombinant native IP-10 (from UniProt P02778 22-98) (ligand)” came in with an EC50, agonist activity in an Aequorin assay with hCXCR3 (human) of 4.4 nM.
